The record followed here is paper PMC9256704 (2022).

The test has as its target T1, recombinant TRIB2 protein (TP301210, OriGene), biotinylated (human, UniProt Q92519 1-343, biotinylated).
T1 chain: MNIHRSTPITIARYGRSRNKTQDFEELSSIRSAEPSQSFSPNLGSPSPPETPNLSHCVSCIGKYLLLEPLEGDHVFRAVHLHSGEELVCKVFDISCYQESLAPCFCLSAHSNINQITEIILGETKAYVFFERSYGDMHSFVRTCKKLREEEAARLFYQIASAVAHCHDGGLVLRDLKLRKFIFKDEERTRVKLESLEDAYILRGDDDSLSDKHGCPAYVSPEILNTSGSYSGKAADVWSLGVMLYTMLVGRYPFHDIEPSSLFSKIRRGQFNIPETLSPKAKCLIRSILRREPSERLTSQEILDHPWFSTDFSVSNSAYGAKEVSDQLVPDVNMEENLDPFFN
Description: BLI. (In general: BLI is a label-free optical method that tracks binding on a fibre tip over time.)

B1: PKM2 (ab89364, Abcam) (natural protein)
chain: not shown
Turning to B1, the koff is 0.0175 s⁻¹.

What is called koff is the rate constant with which the complex falls apart.
